Results as given in the Immune Epitope Database (IEDB).
pIC50, pKd: −log10 of the molar value.

Tests used:
HLA-A*24:02 [1] = assay: IEDB peptide-MHC binding, purified MHC/competitive/fluorescence; ≥ and ≤ were set here for values at or beyond the usual limits of such assays; settings: source organism: Sudan ebolavirus
HLA-A*02:03 = assay: IEDB peptide-MHC binding, purified MHC/direct/fluorescence; filed as Kd, often an IC50 or EC50 that approximates it; ≥ and ≤ were set here for values at or beyond the usual limits of such assays; settings: source organism: Zaire ebolavirus
HLA-A*02:11 = assay: as above; settings: source organism: Zaire ebolavirus
HLA-A*02:12 = assay: as above; settings: source organism: Zaire ebolavirus
HLA-A*02:16 = assay: as above; settings: source organism: Zaire ebolavirus
HLA-A*02:19 = assay: as above; settings: source organism: Zaire ebolavirus
HLA-A*03:01 = assay: as above; settings: source organism: Zaire ebolavirus
HLA-A*24:03 = assay: as above; settings: source organism: Zaire ebolavirus
HLA-A*29:02 [2] = assay: as above; settings: source organism: Zaire ebolavirus
HLA-A*68:02 = assay: as above; settings: source organism: Zaire ebolavirus
HLA-A*02:01 [3] = assay: IEDB peptide-MHC binding, purified MHC/competitive/fluorescence; filed as Kd, often an IC50 or EC50 that approximates it; ≥ and ≤ were set here for values at or beyond the usual limits of such assays; settings: source organism: Zaire ebolavirus
HLA-A*26:01 = assay: as above; settings: source organism: Zaire ebolavirus
HLA-A*69:01 = assay: as above; settings: source organism: Zaire ebolavirus
HLA-B*15:01 = assay: as above; settings: source organism: Zaire ebolavirus
HLA-B*15:17 = assay: as above; settings: source organism: Zaire ebolavirus
HLA-B*18:01 [4] = assay: as above; settings: source organism: Zaire ebolavirus
HLA-B*27:03 = assay: as above; settings: source organism: Zaire ebolavirus
HLA-B*39:01 = assay: as above; settings: source organism: Zaire ebolavirus
HLA-B*46:01 = assay: as above; settings: source organism: Zaire ebolavirus
HLA-B*51:01 = assay: as above; settings: source organism: Zaire ebolavirus
HLA-B*57:01 = assay: as above; settings: source organism: Zaire ebolavirus
HLA-A*23:01 = assay: IEDB peptide-MHC binding, purified MHC/competitive/radioactivity; filed as Kd, often an IC50 or EC50 that approximates it; ≥ and ≤ were set here for values at or beyond the usual limits of such assays; settings: source organism: Lassa virus Josiah
HLA-A*24:02 [5] = assay: as above; settings: source organism: Lassa virus Josiah
HLA-A*29:02 [6] = assay: as above; settings: source organism: Lassa virus Josiah
HLA-B*18:01 [7] = assay: as above
HLA-B*40:01 [8] = assay: as above
HLA-B*40:02 = assay: as above
HLA-B*44:02 = assay: as above
HLA-B*44:03 = assay: as above
HLA-B*45:01 = assay: as above
HLA-B*40:01 [9] = assay: IEDB peptide-MHC binding, purified MHC/direct/fluorescence; filed as Kd, often an IC50 or EC50 that approximates it; ≥ and ≤ were set here for values at or beyond the usual limits of such assays; settings: source organism: Reston ebolavirus - Reston
HLA-A*02:01 [10] = assay: IEDB peptide-MHC binding, purified MHC/competitive/radioactivity; filed as Kd, often an IC50 or EC50 that approximates it; ≥ and ≤ were set here for values at or beyond the usual limits of such assays
HLA-A*02:17 = assay: as above
[11] = source organism: Lassa virus Josiah
[12] = source organism: Lymphocytic choriomeningitis virus (strain WE)
[13] = source organism: SARS coronavirus Tor2
[14] = source organism: Lymphocytic choriomeningitis virus (strain Armstrong)
[15] = source organism: Dengue virus 3 Martinique/1243/1999
[16] = source organism: Dengue virus 4 Philippines/H241/1956

EWAENCYNL
pIC50 (HLA-A*24:02 [1]): 5.19
pKd (HLA-A*02:03): ≤ 4.70
pKd (HLA-A*02:11): ≤ 4.70
pKd (HLA-A*02:12): ≤ 4.70
pKd (HLA-A*02:16): ≤ 4.70
pKd (HLA-A*02:19): ≤ 4.70
pKd (HLA-A*03:01): ≤ 4.70
pKd (HLA-A*24:03): ≤ 4.70
pKd (HLA-A*29:02 [2]): ≤ 4.70
pKd (HLA-A*68:02): ≤ 4.70
pKd (HLA-A*02:01 [3]): ≤ 4.70
pKd (HLA-A*26:01): ≤ 4.70
pKd (HLA-A*69:01): ≤ 4.70
pKd (HLA-B*15:01): ≤ 4.70
pKd (HLA-B*15:17): ≤ 4.70
pKd (HLA-B*18:01 [4]): ≤ 4.70
pKd (HLA-B*27:03): ≤ 4.70
pKd (HLA-B*39:01): ≤ 4.70
pKd (HLA-B*46:01): ≤ 4.70
pKd (HLA-B*51:01): ≤ 4.70
pKd (HLA-B*57:01): ≤ 4.70

YDHALMSII
pKd (HLA-A*23:01): 5.11
pKd (HLA-A*24:02 [5]): ≤ 4.51
pKd (HLA-A*29:02 [6]): ≤ 4.33
pKd (HLA-B*18:01 [7]; [11]): ≤ 4.60
pKd (HLA-B*40:01 [8]; [11]): ≤ 4.58
pKd (HLA-B*40:02; [11]): 7.31
pKd (HLA-B*44:02; [11]): 5.15
pKd (HLA-B*44:03; [11]): ≤ 4.48
pKd (HLA-B*45:01; [11]): ≤ 4.16

LDVLCPSSL
pKd (HLA-B*18:01 [7]; [12]): ≤ 4.11
pKd (HLA-B*40:01 [8]; [12]): ≤ 4.63
pKd (HLA-B*40:02; [12]): 6.31
pKd (HLA-B*44:02; [12]): ≤ 4.65
pKd (HLA-B*44:03; [12]): ≤ 4.11
pKd (HLA-B*45:01; [12]): ≤ 4.11

SFYYIWKSYV
pKd (HLA-B*18:01 [7]; [13]): ≤ 4.15
pKd (HLA-B*40:01 [8]; [13]): 5.94
pKd (HLA-B*40:02; [13]): 5.63
pKd (HLA-B*44:02; [13]): 6.38
pKd (HLA-B*44:03; [13]): 6.50
pKd (HLA-B*45:01; [13]): 5.94

DEMVCKWLL
pKd (HLA-A*02:03): ≤ 4.70
pKd (HLA-A*02:11): ≤ 4.70
pKd (HLA-A*02:12): ≤ 4.70
pKd (HLA-A*02:16): ≤ 4.70
pKd (HLA-A*02:19): ≤ 4.70
pKd (HLA-A*03:01): ≤ 4.70
pKd (HLA-A*24:03): ≤ 4.70
pKd (HLA-A*29:02 [2]): ≤ 4.70
pKd (HLA-A*68:02): ≤ 4.70
pKd (HLA-B*40:01 [9]): 6.41
pKd (HLA-A*02:01 [3]): ≤ 4.70
pKd (HLA-A*26:01): ≤ 4.70
pKd (HLA-B*15:01): ≤ 4.70
pKd (HLA-B*15:17): ≤ 4.70
pKd (HLA-B*27:03): ≤ 4.70
pKd (HLA-B*39:01): ≤ 4.70
pKd (HLA-B*46:01): ≤ 4.70
pKd (HLA-B*51:01): ≤ 4.70
pKd (HLA-B*57:01): ≤ 4.70

REAVESCPL
pKd (HLA-B*18:01 [7]; [14]): 4.99
pKd (HLA-B*40:01 [8]; [14]): 4.95
pKd (HLA-B*40:02; [14]): 7.23
pKd (HLA-B*44:02; [14]): 5.23
pKd (HLA-B*44:03; [14]): 4.88
pKd (HLA-B*45:01; [14]): ≤ 4.22

QLWTALISL
pKd (HLA-A*02:01 [10]; [15]): 8.84
pKd (HLA-A*02:17; [15]): 6.63

LMLVALLGA
pKd (HLA-A*02:01 [10]; [16]): 4.98
pKd (HLA-A*02:17; [16]): 5.53
